This note sets out measurements from patent publication US6348573B1, “Compositions and methods for identifying apoptosis signaling pathway inhibitors and activators” (The Regents of the University of Michigan, priority 1998, dated 2002).

One experiment has as its system BJAB cells. In words: BJAB apoptosis induced by anti-CD95 (anti-APO1) antibody. The class given is cell-based, human. The conditions noted are these: BJAB stably expressing the mutant vs control plasmid, PI staining. Here is the method:
The total amount of transfected plasmid DNA was adjusted with pcDNA3 plasmid to be the same within individual experiments. After transfection, 293T cells were harvested at different times and lysed with 0.2% NP-40 isotonic lysis buffer [N. Inohara et al., Proc. Natl. Acad. Sci. U.S.A. 94:10717-10722 (1997)]. The B lymphocyte-derived BJAB cell line was stably trasnfected by electroporation with pcDNA3 or pcDNA3-Flag-RICK (K38M). After selection with […] (1 μg/ml), bulk cell lines were tested for RICK protein expression with anti-Flag antibody by flow cytometric analysis. […]
Apoptosis Assays: 5×10^5 293T cells were co-transfected with 0.2 μg of pcDNA3-β-gal plus each expression plasmid in triplicate by the calcium phosphate method as reported [N. Inohara et al., Proc. Natl. Acad. Sci. U.S.A. 94:10717-10722 (1997)]. […] At least 300 hundred blue-staining cells were counted. BJAB apoptosis induced by anti-Apol mAb was determined by flow cytometric analysis of nuclei stained with propidium iodide as described [R. Merino et al., J. Immunol. […] Statistical significance was determined by one-way ANOVA followed by Student-Neuman-Keuls post-doc comparisons.

For experiment [1], the target named is T1, Flag-tagged RICK (RIP-like interacting CLARP kinase), pcDNA3-Flag-RICK (human, UniProt O43353 11-540, limits assumed).
T1 construct: Entire open reading frame of RICK, expressed in 293T cells; also called CIPERK; Flag-CIPERK; not shown: N-terminal Flag tag
T1 sequence (O43353 other isoform, or with tags, fused parts or gaps limits assumed): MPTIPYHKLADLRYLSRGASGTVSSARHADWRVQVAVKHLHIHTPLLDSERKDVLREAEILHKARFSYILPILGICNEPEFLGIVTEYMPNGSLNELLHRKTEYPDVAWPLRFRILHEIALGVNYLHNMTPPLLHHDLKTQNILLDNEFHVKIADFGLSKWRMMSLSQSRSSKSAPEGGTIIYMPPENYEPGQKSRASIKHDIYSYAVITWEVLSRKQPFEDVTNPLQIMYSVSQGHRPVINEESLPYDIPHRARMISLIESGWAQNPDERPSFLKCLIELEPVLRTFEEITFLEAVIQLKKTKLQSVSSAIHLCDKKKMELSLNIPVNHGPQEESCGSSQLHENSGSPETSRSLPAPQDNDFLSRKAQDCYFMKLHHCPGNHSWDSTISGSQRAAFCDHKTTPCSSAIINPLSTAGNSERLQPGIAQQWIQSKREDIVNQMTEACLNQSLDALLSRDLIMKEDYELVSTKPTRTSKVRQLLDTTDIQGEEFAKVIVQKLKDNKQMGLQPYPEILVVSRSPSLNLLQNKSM
In words: anti-Flag immunoprecipitation from co-transfected 293T cells, anti-HA immunoblot. For orientation: Immunoblotting shows a protein as a band on a membrane.

As to “RICK-K38M: RICK ATP-binding site mutant, lysine at position 38 replaced by methionine”, the “sensitivity to anti-APO1-induced apoptosis” value in the experiment with BJAB cells is “significantly less sensitive”.

B1: caspase-8, epitope-tagged (pcDNA3-caspase-8-AU1) (enzyme, human, UniProt Q14790-4 1-496, looked up, not shown: small tags and cut ends)
chain: MDFSRNLYDIGEQLDSEDLASLKFLSLDYIPQRKQEPIKDALMLFQRLQEKRMLEESNLSFLKELLFRINRLDLLITYLNTRKEEMERELQTPGRAQISAYRFHFCRMSWAEANSQCQTQSVPFWRRVDHLLIRVMLYQISEEVSRSELRSFKFLLQEEISKCKLDDDMNLLDIFIEMEKRVILGEGKLDILKRVCAQINKSLLKIINDYEEFSKGEELCGVMTISDSPREQDSESQTLDKVYQMKSKPRGYCLIINNHNFAKAREKVPKLHSIRDRNGTHLDAGALTTTFEELHFEIKPHDDCTVEQIYEILKIYQLMDHSNMDCFICCILSHGDKGIIYGTDGQEAPIYELTSQFTGLKCPSLAGKPKVFFIQACQGDNYQKGIPVETDSEEQPYLEMDLSSPQTRYIPDEADFLLGMATVNNCVSYRNPAEGTWYIQSLCQSLRERCPRGDDILTILTEVNYEVSNKDDKKNMGKQMPQPTFTLRKKLVFPSD
notes: also called AU1-tagged caspase-8; FLICE
As for B1, the binding result in experiment [1] is given as “no binding”.

B2: TRAF2 (other, UniProt Q12933 1-501, looked up, not shown: small tags and cut ends)
chain: MAAASVTPPGSLELLQPGFSKTLLGTKLEAKYLCSACRNVLRRPFQAQCGHRYCSFCLASILSSGPQNCAACVHEGIYEEGISILESSSAFPDNAARREVESLPAVCPSDGCTWKGTLKEYESCHEGRCPLMLTECPACKGLVRLGEKERHLEHECPERSLSCRHCRAPCCGADVKAHHEVCPKFPLTCDGCGKKKIPREKFQDHVKTCGKCRVPCRFHAIGCLETVEGEKQQEHEVQWLREHLAMLLSSVLEAKPLLGDQSHAGSELLQRCESLEKKTATFENIVCVLNREVERVAMTAEACSRQHRLDQDKIEALSSKVQQLERSIGLKDLAMADLEQKVLEMEASTYDGVFIWKISDFARKRQEAVAGRIPAIFSPAFYTSRYGYKMCLRIYLNGDGTGRGTHLSLFFVVMKGPNDALLRWPFNQKVTLMLLDQNNREHVIDAFRPDVTSSSFQRPVNDMNIASGCPLFCPVSKMEAKNSYVRDDAIFIKAIVDLTGL
On to B2, for which the binding result in experiment [1] is listed as “no binding”.

B3: caspase-4 (enzyme, UniProt P49662 1-377, looked up, not shown: small tags and cut ends)
chain: MAEGNHRKKPLKVLESLGKDFLTGVLDNLVEQNVLNWKEEEKKKYYDAKTEDKVRVMADSMQEKQRMAGQMLLQTFFNIDQISPNKKAHPNMEAGPPESGESTDALKLCPHEEFLRLCKERAEEIYPIKERNNRTRLALIICNTEFDHLPPRNGADFDITGMKELLEGLDYSVDVEENLTARDMESALRAFATRPEHKSSDSTFLVLMSHGILEGICGTVHDEKKPDVLLYDTIFQIFNNRNCLSLKDKPKVIIVQACRGANRGELWVRDSPASLEVASSQSSENLEEDAVYKTHVEKDFIAFCSSTPHNVSWRDSTMGSIFITQLITCFQKYSWCCHLEEVFRKVQQSFETPRAKAQMPTIERLSMTRYFYLFPGN
With B3, the binding result in experiment [1] is on record as “no binding”.

B4: C. elegans CED-3, epitope-tagged (pcDNA3-Ced-3-Flag) (enzyme, UniProt P42573 1-503, looked up)
chain: MMRQDRRSLLERNIMMFSSHLKVDEILEVLIAKQVLNSDNGDMINSCGTVREKRREIVKAVQRRGDVAFDAFYDALRSTGHEGLAEVLEPLARSVDSNAVEFECPMSPASHRRSRALSPAGYTSPTRVHRDSVSSVSSFTSYQDIYSRARSRSRSRALHSSDRHNYSSPPVNAFPSQPSSANSSFTGCSSLGYSSSRNRSFSKASGPTQYIFHEEDMNFVDAPTISRVFDEKTMYRNFSSPRGMCLIINNEHFEQMPTRNGTKADKDNLTNLFRCMGYTVICKDNLTGRGMLLTIRDFAKHESHGDSAILVILSHGEENVIIGVDDIPISTHEIYDLLNAANAPRLANKPKIVFVQACRGERRDNGFPVLDSVDGVPAFLRRGWDNRDGPLFNFLGCVRPQVQQVWRKKPSQADILIAYATTAQYVSWRNSARGSWFIQAVCEVFSTHAKDMDVVELLTEVNKKVACGFQTSQGSNILKQMPEMTSRLLKKFYFWPEARNSAV
notes: not shown: position and
As to B4, the binding result in experiment [1] was “no binding”.
